Experimental data published in patent US20260055200A1, “COMBINATION THERAPIES” (Alligator Bioscience AB, priority 2022, published 2026).
“Also recorded” adds a separate entry of the source.

Assays:
[1] = system: metastatic pancreatic ductal adenocarcinoma; test: OPTIMIZE-1 anti-tumour activity per RECIST v. 1.1 (ORR, BOR, DCR, DoR, time to progression, PFS, OS); type: in vivo, human
Experimental: The interim analysis was based on objective response rate (ORR) observed for all patients dosed at the mitazalimab RP2D. The interim analysis included efficacy data up to 17 weeks of study treatment (8 cycles for mFOLFIRINOX and 4 cycles for gemcitabine plus nab-paclitaxel).
A CT scan is performed at screening (within 28 days of first dose), 9 weeks after start of study treatment (end of cycle 4 for mFOLFIRINOX combination and at end of Cycle 2 for gemcitabine plus nab-paclitaxel treatment) and thereafter at every 8th week assuming no treatment delays. Additional CT scans may be performed at the discretion of the Investigator at unscheduled visits. The CT scans were evaluated according to RECIST v. […] Patients with response (PR or CR) can have a confirmatory CT scan at least 4 weeks later to confirm the response.
The evaluation of tumour response was done according to RECIST v. 1.1 by the investigational sites using CT scans according to Example 3 RECIST v. […] Patients with PD can discontinue study treatment. However, patients with suspected progression are allowed to continue on treatment if they are considered to be clinically stable in the opinion of the Investigator until clinical or radiological progression is documented.
For the interim analysis, the ORR was based on the response evaluation after 8 cycles for mitazalimab in combination with mFOLFIRINOX or 4 cycles for mitazalimab in combination with gemcitabine plus nab-paclitaxel (i.e., approximately 4 months after first dose). […] In addition, ORR was presented for each study visit. Patients not evaluable for ORR and who completed at least 2 cycles were considered as non-responders.
All secondary efficacy endpoint were presented using descriptive statistics. Best Overall Response (BOR) for each patient will be defined as the best response from RECIST v. 1.1 categories CR, PR, SD and PD at any time during the study. Disease control rate will be defined as either CR, PR or SD at each visit as determined by RECIST v. […] The duration of response (DoR) was defined as number of days from initial response of CR or PR to progressive disease or death due to underlying disease, whichever came first. Duration of Stable Disease (SD) was defined as number of days from first dose of mitazalimab to progressive disease or death, whichever came first. Time to next anti-cancer therapy was defined as number of days from the time from first dose of mitazalimab to next treatment initiated.

[2] = system: CD40-mediated immune cell activation; settings: cited from earlier work
[3] = 450 μg/kg mitazalimab, N = 5, Table 42
[4] = 450 μg/kg mitazalimab, N = 5, safety set, Table 25
[5] = 900 μg/kg mitazalimab + mFOLFIRINOX, FAS N = 23, futility analysis, responses need not be confirmed
[6] = 900 μg/kg mitazalimab + mFOLFIRINOX, FAS N = 57
[7] = 900 μg/kg mitazalimab + mFOLFIRINOX, FAS N = 57, including unconfirmed responses
[8] = 900 μg/kg mitazalimab + mFOLFIRINOX, FAS N = 57, 95% CI (5.8-9.4)
[9] = 900 μg/kg mitazalimab + mFOLFIRINOX, FAS N = 57, first block of Table 49
[10] = 900 μg/kg mitazalimab + mFOLFIRINOX, FAS N = 57, second block of Table 49
[11] = 900 μg/kg mitazalimab + mFOLFIRINOX, FAS, n = 18
[12] = 900 μg/kg mitazalimab, N = 23, FAS, data cut-off 2022 Dec. 8
[13] = 900 μg/kg mitazalimab, N = 38, safety set, Table 25
[14] = 900 μg/kg mitazalimab, N = 65, Table 42
[15] = Overall, N = 43, safety set, Table 25
[16] = futility analysis (FAS), 900 μg/kg mitazalimab and mFOLFIRINOX, 23 patients
[17] = individual patients, End of Treatment visit, 900 μg/kg mitazalimab + mFOLFIRINOX, futility analysis
[18] = individual patients, Unscheduled visit, 900 μg/kg mitazalimab + mFOLFIRINOX, futility analysis
[19] = individual patients, visit Cycle 4, 900 μg/kg mitazalimab + mFOLFIRINOX, futility analysis
[20] = individual patients, visit Cycle 8, 900 μg/kg mitazalimab + mFOLFIRINOX, futility analysis

B1: Mitazalimab: agonistic, human monoclonal (IgG1) antibody targeting CD40 (antibody, chains of the INN, looked up, V domains shown)
VH: EVQLLESGGGLVQPGGSLRLSCAASGFTFSTYGMHWVRQAPGKGLEWLSYISGGSSYIFYADSVRGRFTISRDNSENALYLQMNSLRAEDTAVYYCARILRGGSGMDLWGQGTLVTVSS
VL: QSVLTQPPSASGTPGQRVTISCTGSSSNIGAGYNVYWYQQLPGTAPKLLIYGNINRPSGVPDRFSGSKSGTSASLAISGLRSEDEADYYCAAWDKSISGLVFGGGTKLTVL
[1]; [3]
  Discontinued study: Death due to disease progression, number of patients: 4
  Discontinued study: Death due to disease progression, percentage relative to number discontinued: 80.0%
  Discontinued treatment: Death, number of patients: 0
  Discontinued treatment: Death, percentage relative to number discontinued: 0.0%
  Discontinued treatment: No longer clinically benefiting, number of patients: 0
  Discontinued treatment: No longer clinically benefiting, percentage relative to number discontinued: 0.0%
  Discontinued treatment: Progressive disease, number of patients: 4
  Discontinued treatment: Progressive disease, percentage relative to number discontinued: 80.0%
[1]; [4]
  Discontinued study: Death due to disease progression, number of patients: 2
  Discontinued study: Death due to disease progression, percentage of patients: (40.0) %
  Discontinued treatment: Clear clinical deterioration, number of patients: 0
  Discontinued treatment: Clear clinical deterioration, percentage of patients: (0.0) %
  Discontinued treatment: Death due to disease progression, number of patients: 2
  Discontinued treatment: Death due to disease progression, percentage of patients: (40.0) %
  Discontinued treatment: Progressive disease, number of patients: 2
  Discontinued treatment: Progressive disease, percentage of patients: (40.0) %
[1]; 900 μg/kg Mitazalimab (N = 57) with mFOLFIRINOX, CR, PR or SD as best overall response, RECIST 1.1
  Disease control rate (FAS): 44 (77.2)
[1]; 900 μg/kg mitazalimab + mFOLFIRINOX, FAS N = 23, futility analysis
  Disease control rate (CR, PR or SD), %: (91.3) %
[1]; [5]
  Best Overall Response: Partial response, %: (52.2) %
  Best Overall Response: Progressive disease, %: (8.7) %
  Best Overall Response: Stable disease, %: (39.1) %
  Responders (complete or partial response, RECIST 1.1), %: (52.2) %
[1]; [6]
  BOR: Not evaluable, number of patients: 1
  BOR: Not evaluable, percentage of patients: (1.8) %
  Time to progression: Censored patients, %: (54.4) %
  Time to progression: Patients with event, %: (45.6) %
[1]; [7]
  BOR: Complete response, number of patients: 0
  BOR: Complete response, percentage of patients: (0.0) %
  BOR: Partial response, number of patients: 25
  BOR: Partial response, percentage of patients: (43.9) %
  BOR: Progressive disease, number of patients: 12
  BOR: Progressive disease, percentage of patients: (21.1) %
  BOR: Stable disease, number of patients: 19
  BOR: Stable disease, percentage of patients: (33.3) %
  ORR: Confidence Interval of responders (two-sided exact binomial 90%): 32.6-55.6
  ORR: Responders, number of patients: 25
  ORR: Responders, percentage of patients: (43.9) %
[1]; [8]
  Progression-free survival: Median time to event: 7.2 months
  Time to progression: Median time to event: 7.2 months
[1]; [9]
  Progression-free survival: Censored patients, %: (52.6) %
  Progression-free survival: Patients with event, %: (47.4) %
[1]; [10]
  Overall survival: Censored patients, %: (78.9) %
  Overall survival: Patients with event, %: (21.1) %
[1]; [11]
  Duration of response: Censored patients, %: (72.2) %
  Duration of response: Patients with event, %: (27.8) %
[1]; 900 μg/kg mitazalimab + mFOLFIRINOX, FAS, n = 18, 95% CI (1.9-3.7)
  Time to response: Median time to event: 2.2 months
[1]; 900 μg/kg mitazalimab + mFOLFIRINOX, FAS, n = 18, 95% CI (5.5; NE)
  Duration of response: Median time to event: 8.7 months
[1]; [12]
  Discontinued study: Death due to disease progression, number of patients: 1
  Discontinued study: Death due to disease progression, percentage of patients: (4.3) %
  Discontinued treatment: Clear clinical deterioration, number of patients: 1
  Discontinued treatment: Clear clinical deterioration, percentage of patients: (4.3) %
  Discontinued treatment: Death due to disease progression, number of patients: 1
  Discontinued treatment: Death due to disease progression, percentage of patients: (4.3) %
  Discontinued treatment: Progressive disease, number of patients: 2
  Discontinued treatment: Progressive disease, percentage of patients: (8.7) %
[1]; [13]
  Discontinued study: Death due to disease progression, number of patients: 1
  Discontinued study: Death due to disease progression, percentage of patients: (2.6) %
  Discontinued treatment: Clear clinical deterioration, number of patients: 1
  Discontinued treatment: Clear clinical deterioration, percentage of patients: (2.6) %
  Discontinued treatment: Death due to disease progression, number of patients: 1
  Discontinued treatment: Death due to disease progression, percentage of patients: (2.6) %
  Discontinued treatment: Progressive disease, number of patients: 3
  Discontinued treatment: Progressive disease, percentage of patients: (7.89) %
[1]; [14]
  Discontinued study: Death due to disease progression, number of patients: 15
  Discontinued study: Death due to disease progression, percentage relative to number discontinued: 83.3%
  Discontinued treatment: Death, number of patients: 1
  Discontinued treatment: Death, percentage relative to number discontinued: 3.0%
  Discontinued treatment: No longer clinically benefiting, number of patients: 3
  Discontinued treatment: No longer clinically benefiting, percentage relative to number discontinued: 9.1%
  Discontinued treatment: Progressive disease, number of patients: 19
  Discontinued treatment: Progressive disease, percentage relative to number discontinued: 57.6%
[1]; [15]
  Discontinued study: Death due to disease progression, number of patients: 3
  Discontinued study: Death due to disease progression, percentage of patients: (7.0) %
  Discontinued treatment: Clear clinical deterioration, number of patients: 1
  Discontinued treatment: Clear clinical deterioration, percentage of patients: (2.3) %
  Discontinued treatment: Death due to disease progression, number of patients: 3
  Discontinued treatment: Death due to disease progression, percentage of patients: (7.0) %
  Discontinued treatment: Progressive disease, number of patients: 5
  Discontinued treatment: Progressive disease, percentage of patients: (11.6) %
[1]; Overall, Table 42
  Discontinued treatment: Death, number of patients: 1
  Discontinued treatment: Death, percentage relative to number discontinued: 2.6%
  Discontinued treatment: No longer clinically benefiting, number of patients: 3
  Discontinued treatment: No longer clinically benefiting, percentage relative to number discontinued: 7.7%
  Discontinued treatment: Progressive disease, number of patients: 24
  Discontinued treatment: Progressive disease, percentage relative to number discontinued: 61.5%
[1]; [16]
  ORR: 52.2%
  disease control rate: 91.3%
[1]; futility analysis, 900 μg/kg mitazalimab and mFOLFIRINOX
  responders with a confirmed response via a subsequent scan: 8 out of 12
[1]; [17]
  Non-target lesion(s) response: Non-CR/non-PD
  Overall response: PD (progressive disease (PD))
  Target lesion(s) response: PD (progressive disease (PD))
[1]; [18]
  Non-target lesion(s) response: Non-CR/non-PD
  Overall response: PD (progressive disease (PD)); also recorded: SD (stable disease (SD))
  Target lesion(s) response: PD (progressive disease (PD)); also recorded: SD (stable disease (SD))
[1]; [19]
  Non-target lesion(s) response: Non-CR/non-PD
  Overall response: SD (stable disease (SD))
  Target lesion(s) response: SD (stable disease (SD))
[1]; [20]
  Non-target lesion(s) response: Non-CR/non-PD
  Overall response: SD (stable disease (SD)); also recorded: PD (progressive disease (PD))
  Target lesion(s) response: SD (stable disease (SD)); also recorded: PD (progressive disease (PD))
[1]; individual patients, 900 μg/kg mitazalimab + mFOLFIRINOX, futility analysis, responses need not be confirmed
  Best Overall Response: PD (progressive disease (PD)); also recorded: SD (stable disease (SD))
[2]; all doses except 75 μg/kg
  NK cells and T cells in peripheral blood after infusion: decreased
[2]; all doses tested, dose-dependent recovery
  B cells in peripheral blood after IV administration: margination of B cells was observed
[2]; in vivo, ip
  time of peak of peripheral MCP-1, IP-10 and MIP-1B chemokines post-infusion: 1 to 4 h
[2]; in vivo
  CD40 receptor occupancy on B cells: dose dependent
  IL-6 levels following infusion: not elevated
  duration of CD40 engagement post administration: through Day 8
  recovery of NK cell and T cell levels: fully recovered by study Day 8
